These results are taken from US4777250A, “Chymotrypsin model” (Northwestern University, priority 1986, dated 1988).

Series [1] has as its system CC(=O)Oc1ccc([N+](=O)[O-])cc1. As to the kind of experiment: purified protein, by the assay type. The note with it: other: pH 8.0 (optimum pH), substrate p-nitrophenyl acetate, error limit ± 10%.
A short description of series [2]: Hydrolysis of esters by artificial chymotrypsin (Lineweaver-Burk). The format is biochemical. The note with it: substrate m-t-butylphenyl acetate. The source says:
The chymotrypsin model was examined for its catalytic activity in ester hydrolysis.
In FIG. 2 plot A represents the hydrolysis of p-nitrophenyl acetate by chymotrypsin and plot B represents the hydrolysis of m-t-butylphenyl acetate by the miniature organic model of chymotrypsin. [EA ]=1×10^-5 M; [EB ]=3×10^-5 M.
FIG. 3 depicts the relative stability of both β-benzyme/m-t-butylphenyl acetate and α-chymotrypsin/p-nitrophenyl acetate (O) at elevated temperatures. The real enzyme has 245 amino acids whose conformation can be changed by disrupting hydrogen bonds by elevated temperature. In contrast, the artificial chymotrypsin has no amino acids. Abbreviations are explained by the equation [formula] The stability was obtained by determining the catalytic rate constant at various temperatures at pH 8.0 for chymotrypsin, using 400 nm with a Varian 200 spectrophotometer. β-benzyme activity for the artificial enzyme was determned at its optimum pH 10.7 and 288 nm.

For the compound “chymotrypsin (real enzyme, α-chymotrypsin) (Bos taurus)”, in series [1], the Michaelis constant (Km) came out at 40 µM, the kcat was found to be 0.011 s⁻¹ and the kcat/Km came to 275 M⁻¹ s⁻¹.
Consider `CC(=O)Oc1cccc(C(C)(C)C)c1` [m-t-butylphenyl acetate], for which the kcat in series [2] (pH 10.7 (optimum pH), error limit ± 5%) was 0.028 s⁻¹. In addition, the Km in series [2] (pH 10.7 (optimum pH), error limit ± 10%) was 133 µM. The kcat/Km in series [2] (pH 10.7) came to 210 M⁻¹ s⁻¹.
